Substitutions are numbered along the chain they refer to.
T1: recombinant mouse TfR2 (mouse, UniProt Q9JKX3 103-798, limits assumed)
T1 construct: Negative control protein
T1 sequence (looked up): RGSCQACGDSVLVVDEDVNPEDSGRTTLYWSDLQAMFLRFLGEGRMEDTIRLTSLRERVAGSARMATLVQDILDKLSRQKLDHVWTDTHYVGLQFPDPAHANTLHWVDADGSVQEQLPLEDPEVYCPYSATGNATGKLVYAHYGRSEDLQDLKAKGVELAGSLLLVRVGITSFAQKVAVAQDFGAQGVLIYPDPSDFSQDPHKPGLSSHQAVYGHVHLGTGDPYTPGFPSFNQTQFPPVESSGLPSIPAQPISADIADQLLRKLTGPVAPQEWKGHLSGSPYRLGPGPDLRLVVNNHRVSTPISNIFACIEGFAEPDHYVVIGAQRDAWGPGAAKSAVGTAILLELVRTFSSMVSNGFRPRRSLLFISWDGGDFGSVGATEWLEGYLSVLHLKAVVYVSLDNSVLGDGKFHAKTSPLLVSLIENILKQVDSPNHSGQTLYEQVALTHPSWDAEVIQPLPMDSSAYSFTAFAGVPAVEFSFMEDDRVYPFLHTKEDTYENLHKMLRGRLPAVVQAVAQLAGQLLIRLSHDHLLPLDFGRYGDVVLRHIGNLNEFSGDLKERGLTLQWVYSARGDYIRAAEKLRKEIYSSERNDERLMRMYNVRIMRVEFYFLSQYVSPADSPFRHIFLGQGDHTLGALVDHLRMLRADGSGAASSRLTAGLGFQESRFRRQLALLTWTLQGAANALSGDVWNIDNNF

B1: SEQ ID NO 18 (VNAR clone displayed on phage) (VNAR)
VNAR: ARVDQTPQTITKETGESLTINCVLRDSNCALPSTYWYRKKSGSTNEESISKGGRYVETVNSGSKSFSLRINDLTVKDSGTYRCNVQHIFQHNCYWFLYDVYGGGTAVTVNA
notes: shark VNAR domain on M13 phage; coat-protein fusion not described
B2: SEQ ID NO 34 (VNAR clone displayed on phage) (VNAR)
VNAR: ARVDQTPQTITKETGESLTINCVLRDSNCDLSRTYWYRKKSGSTNEESISKGGRYVETVNSGSKSFSLRINDLVVEDSGTYRCNVAVFTRCHNQQDVYGGGTAVTVNA
notes: as for B1
B3: SEQ ID NO 14 (VNAR clone displayed on phage) (VNAR)
VNAR: ARVDQTPQTITKETGESLTINCVLRDSNCALPSTYWYRKKSGSTNEESISKGGRYVETVNSGSKSFSLRINDLTVEDSGTYRCKVTFSAFEYCYVFKVQCDVYGDGTAVTVNA
notes: as for B1
B4: SEQ ID NO 32 (VNAR clone displayed on phage) (VNAR)
VNAR: ARVDQTPQTITKETGESLTINCVLRDSNCALSNLYWYRKKSGSRNEESISKGGRYVETVNSGSKSFSLKINDLTVEDSGTYRCKVFGMRTHCQWVIYRITDVYGGGTAVTVNA
notes: as for B1
B5: SEQ ID NO 40 (VNAR clone displayed on phage) (VNAR)
VNAR: ARVDQTPQTITKETGESLTINCVLRDSNCALSSTLWYRTKSGSRNEESISKGGRYVETVNSGSKSFSLRINDLTVEDSGTYRCNVQFSYNCNFWKDVYGGGTDVTVNA
notes: as for B1
B6: SEQ ID NO 38 (VNAR clone displayed on phage) (VNAR)
VNAR: ARVDQTPQTITKETGESLTINCVLRDNNCALSSTLWYRTKSGSRNEESISKGGRYVETVNSGSKSFSLRINDLTVEDSGTYRCKVWQDSLSQPCESGCLDVYGGGTAVTVNA
notes: as for B1
B7: SEQ ID NO 23 (VNAR clone displayed on phage) (VNAR)
VNAR: ARVDQTPQTITKETGESLTINCVLRDSNCALSNLYWYRKKSGSTNEESISKGGRYVETVNSGSKSFSLRINDLTVEDSGTYRCNVINFFAMECEYQVGDVYGDGTAVTVNA
notes: as for B1
B8: SEQ ID NO 26 (VNAR clone displayed on phage) (VNAR)
VNAR: ARVDQTPQTITKETGESLTINCVLRDSNCALSNLYWYRKKSGSTNEENISKGGRYVETVNSGSKSFSLRINDLTVEDSGTYRCNVDVTRCTQSQDVYGGGTAVTVNA
notes: as for B1
B9: SEQ ID NO 27 (VNAR clone displayed on phage) (VNAR)
VNAR: B8 VNAR with I10V, N48S, K51L, D86K, V87H, T88Y, R89V, T91M, Q94K, A102V
notes: as for B1
B10: SEQ ID NO 13 (VNAR clone displayed on phage) (VNAR)
VNAR: ARVDQTPQTITKETGESLTINCVLRDSNCALPSTYRYRKKSGSTNEESISKGGRYVETVNSGSKSFSLRINDLTVEDSGTYRCKVTMVRGRGCYQPARGQDVYGGGTAVTVNA
notes: as for B1
B11: SEQ ID NO 22 (VNAR clone displayed on phage) (VNAR)
VNAR: ARVDQTPQTITKETGESLTINCVLRDSNCALSSTYWYRKKSDSTNEESISKGGRYVETVNSGSKSFSLRINDLTVEDSGTYRCKVHSFNMDVCAEFQYSDVYGDGTAVTVNA
notes: as for B1
B12: SEQ ID NO 24 (VNAR clone displayed on phage) (VNAR)
VNAR: ARVDQTPQTITKETGESLTINCVLRDSNCALSNLYWYRKKSGSTNEESISKGGRYVETVNSGSKSFSLRINDLTVKDSGTYRCNVLVSMFCQLAQDVYGDGTAVTVNA
notes: as for B1
B13: SEQ ID NO 31 (VNAR clone displayed on phage) (VNAR)
VNAR: ARVDQTPQTITKETGESLTINCVLRDSNCDLSRTYWYRKKSGSTNEESISKGGRYVETVNSGSKSFSLKINDLTVEDSGTYRCNVFLWNNYNPMDVYGGGTAVTVNA
notes: as for B1
B14: SEQ ID NO 29 (VNAR clone displayed on phage) (VNAR)
VNAR: ARVDQTPQTITKETGESLTINCVLRDSNCALSNLYWYRKKSGSTNEESISLGGRYVETVNSGSKSFSLRINDLTVEDSGTYRCKVSTSVPRHYDNCRQRRHDVYGGGTAVTVNA
notes: as for B1
B15: SEQ ID NO 15 (VNAR clone displayed on phage) (VNAR)
VNAR: ARVDQTPQTITKETGESLTINCVLRDSNCALPSTYWYCKKSGSTNEESISKGGRYVETVNSGSKSFSLRINDLTVKDSGTYRCKVHVRAQSLCCQCWYGDVYGDGTAVTVNA
notes: as for B1
B16: SEQ ID NO 20 (VNAR clone displayed on phage) (VNAR)
VNAR: ARVDQTPQTITKETGESLTINCVLRDSNCALPSTYWYRKKSGSTNEESISKGGRYVETVNSGSKSFSLRINDLTVEDSGTYRCNVYTSYCCSVADVYGGGTAVTVNA
notes: as for B1
B17: SEQ ID NO 21 (VNAR clone displayed on phage) (VNAR)
VNAR: ARVDQTPQTITKETGESLTINCVLRDSNCALSSTYWYRKKSGSTNEESISKGGRYVETVNSGSKSFSLRINDLTVEDSGTYRCKVLTSQSQGGCVRVLYSDVYGDGTAVTVNA
notes: as for B1
B18: SEQ ID NO 37 (VNAR clone displayed on phage) (VNAR)
VNAR: ARVDQTPQTITKETGESLTINCVLRDSNCALSSTLWYRTKSGSRNEESISKGGRYVETVNSGSKSFSLRINDLTVKDSGTYRCNVQQGVVATCTSKRCDVYGGGTAVTVNA
notes: as for B1
B19: SEQ ID NO 17 (VNAR clone displayed on phage) (VNAR)
VNAR: ARVDQTPQTITKETGESLTINCVLRDSNCALPSTYWYRKKSGSTNEESISKGGRYVETVNSGSKSFSLRINDLTVKDSGTYRCNVARHWTQSCAYHRDVYGGGTAVTVNA
notes: as for B1
B20: SEQ ID NO 19 (VNAR clone displayed on phage) (VNAR)
VNAR: ARVDQTPQTITKETGESLTINCVLRDSNCALPSTYWYRKKSGSTNEESISKGGRYVETVNSGSKSFSLRINDLTVEDSGTYRCNVGWSTQYYCVLPDVYGGGTAVTVNA
notes: as for B1
B21: SEQ ID NO 33 (VNAR clone displayed on phage) (VNAR)
VNAR: ARVDQTPQTITKETGESLTINCVLRDSNCDLSRTYWYRKKQGSTNEESISKGGRYVETVNSGSKSFSLRINDLTVEDSGTYRCNVALYHFTGCSRVQDVYGGGTVVTVNA
notes: as for B1
B22: SEQ ID NO 35 (VNAR clone displayed on phage) (VNAR)
VNAR: ARVDQTPQTITKETGESLTINCVLRDSNCDLSRTYWYRKKSGSTNEESISKGGRYVETVNSGSKSFSLRINDLTVEDSGTYRCNVTWLDCHQCGASDVYGGGTVVTVNA
notes: as for B1
B23: SEQ ID NO 36 (VNAR clone displayed on phage) (VNAR)
VNAR: ARVDQTPQTITKETGESLTINCVLRDSNCDLSRTYWYRKKSGSTNEESISKGGRYVETVNSGSKSFSLRINDLVVEDSGTYRCNVHSVSCIQRLDVYGGGTVVTVNA
notes: as for B1
B24: SEQ ID NO 41 (VNAR clone displayed on phage) (VNAR)
VNAR: ARVDQTPQTITKETGESLTINCVLRDSNCALSSTLWYRTKSGSRNEESISKGGRYVETVNSGSKSFSLKINDLTVEDSGTYRCKVCRQCCVATCDDLSLLCDVYGDGTAVTVNA
notes: as for B1
B25: SEQ ID NO 28 (VNAR clone displayed on phage) (VNAR)
VNAR: ARVDQTPQTITKETGESLTINCVLRDSNCALSNLYWYRKKSGSTNEESISLGGRYVETVNSGSKSFSLRINDLTVKDSGTYRCNVFSFSCQLLFDVYGGGTAVTVNA
notes: as for B1
B26: SEQ ID NO 25 (VNAR clone displayed on phage) (VNAR)
VNAR: ARVDQTPQTITKETGESLTINCVLRDSNCALSNLYWYRKKSGSTNEESISLGGRYVETVNSGSKSFSLRINDLTVEDSGTYRCNVCLLQLAGYDSPYDVYGGGTAVTVNA
notes: as for B1
B27: SEQ ID NO 30 (VNAR clone displayed on phage) (VNAR)
VNAR: ARVDQTPQTITKETGESLTINCVLRDSNCALSNLYWYRKKSGSTNEESISLGGRYVETVNSGSKSFSLRINDLTVEDSGTYRCNVCQWLQWYGGEMEDVYGGGTAVTVNA
notes: as for B1

What follows are binders tested against T2, recombinant human TfR1 (transferrin receptor 1) (human, UniProt P02786 89-760) (assay: phage ELISA).
T2 construct: Bought recombinant His-tagged protein; also called hTfR1
T2 sequence (P02786 89-760 limits assumed): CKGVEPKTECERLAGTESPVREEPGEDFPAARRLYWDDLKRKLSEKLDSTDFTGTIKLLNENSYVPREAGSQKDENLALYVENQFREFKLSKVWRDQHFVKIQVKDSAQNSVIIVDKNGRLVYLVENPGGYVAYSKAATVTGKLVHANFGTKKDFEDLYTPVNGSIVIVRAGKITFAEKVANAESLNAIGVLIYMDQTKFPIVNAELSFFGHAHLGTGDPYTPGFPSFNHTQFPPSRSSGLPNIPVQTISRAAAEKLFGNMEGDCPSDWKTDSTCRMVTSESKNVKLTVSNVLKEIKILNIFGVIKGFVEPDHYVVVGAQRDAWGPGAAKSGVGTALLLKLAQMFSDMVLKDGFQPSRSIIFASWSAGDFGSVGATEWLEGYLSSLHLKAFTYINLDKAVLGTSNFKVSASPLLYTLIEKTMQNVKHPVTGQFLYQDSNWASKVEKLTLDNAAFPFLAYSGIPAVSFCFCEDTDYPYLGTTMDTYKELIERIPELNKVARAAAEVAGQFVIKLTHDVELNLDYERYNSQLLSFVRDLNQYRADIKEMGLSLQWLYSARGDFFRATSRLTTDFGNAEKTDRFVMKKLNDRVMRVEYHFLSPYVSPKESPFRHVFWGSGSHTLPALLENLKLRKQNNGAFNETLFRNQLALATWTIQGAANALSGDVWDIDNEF
B1: binds.
B2: binds.
B3: binds.
B4: binds.
B5: binds.
B6: binds.
B7: binds.
B8: binds.
B9: binds.
B10: binds.
B11: binds.
B12: binds.
B13: binds.
B14: binds.
B15: binds.
B16: binds.
B17: binds.
B18: binds.
B19: binds.
B20: binds.
B21: binds.
B22: binds.
B23: binds.
B24: binds.
B25: binds.
B26: binds.
B27: binds.

The binders below were run against T3, recombinant mouse TfR1 (transferrin receptor 1) (mouse, UniProt Q62351 89-763) (assay: phage ELISA).
T3 construct: Bought recombinant His-tagged protein; also called mTfR1
T3 sequence (Q62351 89-763 limits assumed): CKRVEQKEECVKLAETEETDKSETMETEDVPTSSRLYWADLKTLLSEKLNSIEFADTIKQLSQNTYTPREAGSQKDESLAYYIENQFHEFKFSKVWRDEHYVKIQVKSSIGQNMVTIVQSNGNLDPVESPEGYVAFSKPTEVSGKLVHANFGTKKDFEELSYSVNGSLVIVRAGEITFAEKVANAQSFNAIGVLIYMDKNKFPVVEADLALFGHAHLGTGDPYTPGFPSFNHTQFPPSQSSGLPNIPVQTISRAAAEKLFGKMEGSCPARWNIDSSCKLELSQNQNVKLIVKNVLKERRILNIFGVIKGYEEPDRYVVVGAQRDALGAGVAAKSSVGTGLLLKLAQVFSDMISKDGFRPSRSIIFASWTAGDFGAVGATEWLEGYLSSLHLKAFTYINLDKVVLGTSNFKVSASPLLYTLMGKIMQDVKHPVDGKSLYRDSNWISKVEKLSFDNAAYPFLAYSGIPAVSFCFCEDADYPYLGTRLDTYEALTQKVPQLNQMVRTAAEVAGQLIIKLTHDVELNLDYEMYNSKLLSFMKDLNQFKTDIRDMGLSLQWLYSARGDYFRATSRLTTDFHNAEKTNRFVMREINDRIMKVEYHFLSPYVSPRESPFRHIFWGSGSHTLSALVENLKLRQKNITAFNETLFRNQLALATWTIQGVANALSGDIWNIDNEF
B1: binds.
B2: binds.
B3: binds.
B4: binds.
B5: binds.
B6: binds.
B7: binds.
B8: binds.
B9: binds.
B10: binds.
B11: binds.
B12: binds.
B13: binds.
B14: binds.
B15: binds.
B16: binds.
B17: binds.
B18: binds.
B19: binds.
B20: binds.
B21: binds.
B22: binds.
B23: binds.
B24: binds.
B25: binds.
B26: binds.
B27: binds.

The binders below were run against T1, recombinant mouse TfR2 (assay: phage ELISA).
B2: no binding.
B4: no binding.
B5: no binding.
B6: no binding.
B18: no binding.
B21: no binding.
B22: no binding.
B23: no binding.
B24: no binding.

— patent US20220031857A1 (OSSIANIX, published 2022)
